± gives the uncertainty stated by the source.
B1: Ankyrin-3, residues 4094 to 4171; numbered along this chain, Q12955 (parent)
chain: MAIVADHLGLSWTELARELNFSVDEINQIRVENPNSLISQSFMLLKKWVTRDGKNATTDALTSVLTKINRIDIVTLLE

Variants of: B1
Assay: abundance fitness (aPCA) (normalised: wild type 0, dead -1); higher = more abundant; growth selection in yeast, the domain comes from the species named
Conditions: Homo sapiens

Variant	abundance fitness
N27F	-0.244 ± 0.08
N27C	-0.238 ± 0.099
N27K	-0.112 ± 0.11
N27V	-0.373 ± 0.065
N27L	-0.383 ± 0.054
N27T	-0.174 ± 0.075
N27P	-0.926 ± 0.39
N27H	-0.06 ± 0.12
N27A	-0.082 ± 0.067
N27Q	0.012 ± 0.085
N27W	-0.35 ± 0.097
N27D	-0.272 ± 0.12
N27Y	-0.149 ± 0.14
N27R	-0.11 ± 0.044
N27G	-0.798 ± 0.1
N27S	-0.125 ± 0.06
N27E	-0.191 ± 0.13
V23W	-0.049 ± 0.073
V23T	-0.023 ± 0.053
V23S	-0.061 ± 0.048
V23Y	-0.534 ± 0.27
D24Q	0.063 ± 0.069
D24L	-0.272 ± 0.063
D24F	-0.621 ± 0.21

Variant	abundance fitness
D24N	-0.197 ± 0.2
D24S	-0.199 ± 0.055
D24W	-0.435 ± 0.077
D24V	-0.341 ± 0.069
D24H	-0.068 ± 0.087
D24E	0.053 ± 0.11
D24K	-0.195 ± 0.087
D24C	-0.342 ± 0.098
D24P	-0.352 ± 0.086
D24Y	-0.228 ± 0.14
D24I	-0.4 ± 0.19
D24T	-0.152 ± 0.12
D24M	-0.424 ± 0.096
E32Q	-0.1 ± 0.14
E32A	-0.039 ± 0.057
E32K	-0.48 ± 0.21
E32H	-0.396 ± 0.28
E32M	-0.106 ± 0.077
E32G	-0.202 ± 0.043
E32W	-0.839 ± 0.19
E32Y	-0.278 ± 0.2
E32I	-0.621 ± 0.2
E32D	0.011 ± 0.085
E32P	-0.593 ± 0.11

Variant	abundance fitness
E32C	-0.249 ± 0.093
E32N	-0.074 ± 0.15
E32T	-0.155 ± 0.086
E32V	-0.316 ± 0.045
E32S	-0.185 ± 0.052
E32R	-0.126 ± 0.051
Q28I	-0.479 ± 0.39
Q28R	-0.071 ± 0.043
Q28N	-0.2 ± 0.16
Q28M	-0.179 ± 0.13
Q28V	-0.399 ± 0.073
Q28F	-0.479 ± 0.26
Q28A	0.044 ± 0.054
Q28S	-0.094 ± 0.055
Q28K	-0.134 ± 0.16
Q28W	-0.768 ± 0.14
Q28P	-0.652 ± 0.097
Q28C	-0.318 ± 0.19
Q28H	-0.202 ± 0.12
Q28G	-0.264 ± 0.06
Q28T	-0.223 ± 0.083
Q28E	0.035 ± 0.065
Q28D	0.044 ± 0.21
Q28L	-0.254 ± 0.06

Variant	abundance fitness
Q28Y	-0.298 ± 0.3
P34C	-0.7 ± 0.21
P34A	-0.245 ± 0.056
P34D	-0.268 ± 0.1
N33H	-0.023 ± 0.16
N33K	-0.208 ± 0.076
N33Y	-0.168 ± 0.12
N33M	-0.143 ± 0.088
N33C	0.034 ± 0.1
N33E	0.055 ± 0.075
N33T	-0.091 ± 0.069
N33Q	0.093 ± 0.067
N33G	-0.607 ± 0.061
N33L	-0.755 ± 0.11
N33W	-0.204 ± 0.066
N33P	-0.812 ± 0.18
N33S	-0.014 ± 0.055
N33F	-0.082 ± 0.14
N33R	-0.148 ± 0.045
R30E	-0.088 ± 0.16
R30P	-0.232 ± 0.13
R30Y	-0.061 ± 0.33
R30C	-0.112 ± 0.11
R30Q	-0.188 ± 0.097

Variant	abundance fitness
R30F	-0.628 ± 0.18
R30K	-0.02 ± 0.16
R30V	-0.172 ± 0.064
R30A	-0.022 ± 0.064
R30W	-0.453 ± 0.17
R30L	-0.033 ± 0.076
R30I	0.064 ± 0.11
R30G	-0.385 ± 0.067
R30M	0.111 ± 0.099
R30T	-0.158 ± 0.085
R30S	-0.074 ± 0.058
E25A	-0.457 ± 0.097
E25F	-0.771 ± 0.17
E25R	-0.947 ± 0.14
E25N	-0.63 ± 0.28
E25G	-0.826 ± 0.14
E25V	-0.344 ± 0.072
E25H	-0.859 ± 0.23
E25L	-0.862 ± 0.12
E25Y	-0.792 ± 0.2
E25P	-0.957 ± 0.13
E25I	-0.754 ± 0.27
E25T	-0.334 ± 0.091
E25W	-0.887 ± 0.19

Variant	abundance fitness
E25D	0.03 ± 0.11
E25K	-0.808 ± 0.2
E25Q	-0.251 ± 0.045
E25M	-0.739 ± 0.19
I29E	-0.174 ± 0.16
I29V	-0.302 ± 0.057
I29A	-0.768 ± 0.11
I29R	-0.857 ± 0.16
I29W	-0.979 ± 0.17
I29F	-0.765 ± 0.23
I29H	-0.389 ± 0.39
I29S	-0.846 ± 0.11
I29L	-0.456 ± 0.064
I29G	-0.927 ± 0.12
I29C	-0.741 ± 0.18
I29T	-0.752 ± 0.15
I29P	-0.808 ± 0.17
I26C	-0.561 ± 0.14
I26P	-0.894 ± 0.14
I26K	-0.953 ± 0.26
I26V	-0.076 ± 0.074
I26Q	-0.594 ± 0.12
I26M	-0.544 ± 0.14
I26E	-0.848 ± 0.17

Variant	abundance fitness
I26T	-0.755 ± 0.27
I26L	-0.96 ± 0.15
I26R	-0.522 ± 0.11
I26S	-0.805 ± 0.17
I26W	-0.871 ± 0.16
I26D	-0.886 ± 0.16
V31T	0.026 ± 0.08
V31K	0.044 ± 0.11
V31M	-0.191 ± 0.13
V31F	-0.086 ± 0.11
V31H	0.145 ± 0.098
V31Y	0.057 ± 0.24
V31W	-0.165 ± 0.072
V31E	-0.139 ± 0.098
V31Q	0.003 ± 0.077
V31L	0.087 ± 0.051
V31D	0.058 ± 0.12
V31G	-0.089 ± 0.047
V31R	0.041 ± 0.044
V31C	0.049 ± 0.19
V31P	-0.929 ± 0.19
V31S	-0.006 ± 0.062
V31A	-0.07 ± 0.055

Source: the Human Domainome abundance scans (Beltran et al. 2025)
